We go through three molecules from paper doi:10.1101/2020.06.24.169185 (bioRxiv, 2020).

The chains are these.
B1: GFP-Nanog (natural protein, UniProt Q80Z64 1-305, looked up)
chain: MSVGLPGPHSLPSSEEASNSGNASSMPAVFHPENYSCLQGSATEMLCTEAASPRPSSEDLPLQGSPDSSTSPKQKLSSPEADKGPEEEENKVLARKQKMRTVFSQAQLCALKDRFQKQKYLSLQQMQELSSILNLSYKQVKTWFQNQRMKCKRWQKNQWLKTSNGLIQKGSAPVEYPSIHCSYPQGYLVNASGSLSMWGSQTWTNPTWSSQTWTNPTWNNQTWTNPTWSSQAWTAQSWNGQPWNAAPLHNFGEDFLQPYVQLQQNFSASDLEVNLEATRESHAHFSTPQALELFLNYSVTPPGEI
B2: mCherry-Nanog (natural protein, UniProt Q80Z64 1-305, looked up)
chain: B1 chain
B3: GFP-Sox2 (natural protein)
chain: not shown

Data set [1] deals with the molecule itself. The data set can be described thus: fluorescence correlation spectroscopy.
Data set [2] concerns the molecule itself. The data set can be described thus: fluorescence correlation spectroscopy. This is another data set of the same source.
The target of the data set “mCherry-Nanog” is B2. In words: fluorescence cross-correlation spectroscopy.
Data set [3] deals with the molecule itself. The data set can be described thus: fluorescence correlation spectroscopy. The source holds these as a separate data set.

As to B1, the GFP-Nanog/GFP brightness ratio in data set [1] was approximately 1.5. Also, the stoichiometry N (as a rule, a count of units in the complex or per binding partner) in data set [2] turned out to be 2. The complex % in the data set with mCherry-Nanog came to 19.8%. Regarding B2, in data set [3], the mCherry-Nanog/mCherry brightness ratio was approximately 2. As for B3, the complex % with mCherry-Nanog is 26.1%.
